Results from patent US20210301005A1 (Genentech, published 2021).
Positions count from the first letter of the chain named. Where two headings read alike, the source gives them in different places.

Legend:
[1] = molecular target: T1, human TGFβ2, mature receptor-binding domain (human, UniProt P09858 303-414 (pig entry), The mature TGFβ2 is a disulfide-linked homodimer of this 112-residue chain. The 4A11 epitope spans both monomers (p-1207).); assay: BIAcore T200
T1 construct: Peprotech; also called TGFb2
T1 sequence: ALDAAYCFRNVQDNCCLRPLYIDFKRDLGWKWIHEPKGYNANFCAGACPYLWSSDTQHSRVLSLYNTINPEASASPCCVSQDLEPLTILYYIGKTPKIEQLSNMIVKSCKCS
Procedure: (§1) For binding affinity determinations of all humanized 2A10 antibodies, Surface Plasmon Resonance (SPR) measurement with a BIAcore™-T200 instrument was used. Briefly, series S CM5 biosensor chip with protein A was first applied to capture each humanized 2A10 variant to achieve approximately 100 response units (RU) on each flow cell, following by injection of 3-fold serial dilutions of human TGFβ1, TGFβ2 or TGFβ3 (0.02 nM to 5 nM) in HBS-EP buffer (0.01M HEPES pH 7.4, 0.15M NaCl, 3 mM EDTA and 0.05% v/v surfactant P20) at 25° C. with a flow rate of 50 μl/min for kinetics measurement. Association rates (ko.) and dissociation rates (koff) were calculated using a simple one-to-one Langmuir binding model (BIAcore T200 evaluation software version 2.0) to determine the equilibrium dissociation constant (KD), which was calculated as the ratio koff/kₒₙ.
(§2) Binding affinity determinations of all humanized 4A11 antibodies were performed using SPR measurement with a BIAcore™-T200 instrument, as described above in Example 6 ([…]).

[2] = molecular target: T2, human TGFβ3, mature dimeric form (human, UniProt P10600 301-412); assay: BIAcore T200
T2 construct: Peprotech, expressed in E. coli; also called TGFb3
T2 sequence: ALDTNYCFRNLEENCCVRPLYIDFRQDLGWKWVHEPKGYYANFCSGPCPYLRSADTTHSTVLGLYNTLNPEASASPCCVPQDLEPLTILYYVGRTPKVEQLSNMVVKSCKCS
Procedure: as §1, §2

[3] = molecular target: T3, human TGFβ1, mature receptor-binding domain (human, UniProt P01137 279-390); assay: BIAcore T200
T3 construct: Peprotech; also called TGFb1
Procedure: as §1, §2

[4] = molecular target: T1, human TGFβ2, mature receptor-binding …; assay: BIAcore T200; remark: listed apart in the source
Procedure: as §1, §2

[5] = molecular target: T2, human TGFβ3, mature dimeric form; assay: BIAcore T200; remark: listed apart in the source
Procedure: as §1, §2

[6] = molecular target: T3, human TGFβ1, mature receptor-binding …; assay: BIAcore T200; remark: listed apart in the source
Procedure: as §1, §2

[7] = molecular target: T1, human TGFβ2, mature receptor-binding …; assay: BIAcore T200; remark: listed apart in the source
Procedure: as §1, §2

[8] = molecular target: T2, human TGFβ3, mature dimeric form; assay: BIAcore T200; remark: listed apart in the source
Procedure: as §1, §2

[9] = molecular target: T3, human TGFβ1, mature receptor-binding …; assay: cell-based or functional assay
[10] = molecular target: T1, human TGFβ2, mature receptor-binding …; assay: cell-based or functional assay
[11] = molecular target: T2, human TGFβ3, mature dimeric form; assay: cell-based or functional assay
[12] = molecular target: T3, human TGFβ1, mature receptor-binding …; assay: cell-based or functional assay; remark: listed apart in the source
[13] = molecular target: T1, human TGFβ2, mature receptor-binding …; assay: cell-based or functional assay; remark: listed apart in the source
[14] = molecular target: T2, human TGFβ3, mature dimeric form; assay: cell-based or functional assay; remark: listed apart in the source
[15] = molecular target: T3, human TGFβ1, mature receptor-binding …; assay: cell-based or functional assay; remark: listed apart in the source
[16] = molecular target: T1, human TGFβ2, mature receptor-binding …; assay: cell-based or functional assay; remark: listed apart in the source
[17] = molecular target: T2, human TGFβ3, mature dimeric form; assay: cell-based or functional assay; remark: listed apart in the source
[18] = molecular target: T3, human TGFβ1, mature receptor-binding …; assay: SPR
[19] = molecular target: T1, human TGFβ2, mature receptor-binding …; assay: SPR
[20] = molecular target: T2, human TGFβ3, mature dimeric form; assay: SPR
[21] = molecular target: T3, human TGFβ1, mature receptor-binding …; assay: cell-based or functional assay; remark: listed apart in the source
[22] = molecular target: T1, human TGFβ2, mature receptor-binding …; assay: cell-based or functional assay; remark: listed apart in the source
[23] = molecular target: T2, human TGFβ3, mature dimeric form; assay: cell-based or functional assay; remark: listed apart in the source
[24] = molecular target: T1, human TGFβ2, mature receptor-binding …; assay: BIAcore T200; remark: listed apart in the source
Procedure: as §1

[25] = molecular target: T2, human TGFβ3, mature dimeric form; assay: BIAcore T200; remark: listed apart in the source
Procedure: as §1

[26] = molecular target: T3, human TGFβ1, mature receptor-binding …; assay: cell-based or functional assay; remark: listed apart in the source
[27] = molecular target: T1, human TGFβ2, mature receptor-binding …; assay: cell-based or functional assay; remark: listed apart in the source
[28] = molecular target: T2, human TGFβ3, mature dimeric form; assay: cell-based or functional assay; remark: listed apart in the source

T3 sequence (P01137 279-390 limits assumed): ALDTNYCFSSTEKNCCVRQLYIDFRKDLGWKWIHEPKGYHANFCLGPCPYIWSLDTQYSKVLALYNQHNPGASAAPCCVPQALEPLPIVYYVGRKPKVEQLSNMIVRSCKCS

B1: h4A11.v7 (antibody, human IgG1, kappa, N297G)
heavy: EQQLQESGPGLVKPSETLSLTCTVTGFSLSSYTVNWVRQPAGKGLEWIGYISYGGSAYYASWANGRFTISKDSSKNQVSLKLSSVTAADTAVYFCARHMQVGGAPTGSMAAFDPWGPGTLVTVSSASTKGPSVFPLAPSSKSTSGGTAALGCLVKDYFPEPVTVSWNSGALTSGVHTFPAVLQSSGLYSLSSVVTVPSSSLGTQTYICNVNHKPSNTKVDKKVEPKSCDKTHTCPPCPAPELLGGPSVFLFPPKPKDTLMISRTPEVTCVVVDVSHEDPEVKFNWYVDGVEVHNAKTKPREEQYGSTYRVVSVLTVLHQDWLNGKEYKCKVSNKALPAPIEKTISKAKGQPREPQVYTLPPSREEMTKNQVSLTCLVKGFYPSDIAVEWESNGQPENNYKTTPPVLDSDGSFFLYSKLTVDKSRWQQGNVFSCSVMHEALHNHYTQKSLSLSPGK
light: EAVLTQSPGTLSLSPGERATLSCQSSQSVYNNNYLSWFQQKPGQPPRLLIYGASTLTSGVPDRFSGSGSGTDFTLTISRLEPEDFAVYYCAGGYSGSSDKYAFGGGTKVEIKRTVAAPSVFIFPPSDEQLKSGTASVVCLLNNFYPREAKVQWKVDNALQSGNSQESVTEQDSKDSTYSLSSTLTLSKADYEKHKVYACEVTHQGLSSPVTKSFNRGEC
- Kd [1]: 0.0063 nM
- Kd [2]: 0.0097 nM
- Kd [3]: > 5 nM
- Kd [4]: 0.0063 nM
- Kd [5]: 0.0097 nM
- Kd [6]: > 5 nM
- Kd [7]: 0.0063 nM
- Kd [8]: 0.0097 nM
- HEKBlue TGFβ blocking IC50 [9]: > 200 nM
- HEKBlue TGFβ blocking IC50 [10]: 0.09 nM
- HEKBlue TGFβ blocking IC50 [11]: 0.03 nM
- HEKBlue TGFβ blocking IC50 [12]: > 200 nM
- HEKBlue TGFβ blocking IC50 [13]: 0.09 nM
- HEKBlue TGFβ blocking IC50 [14]: 0.03 nM
- HEKBlue TGFβ blocking IC50 [15]: > 200 nM
- HEKBlue TGFβ blocking IC50 [16]: 0.09 nM
- HEKBlue TGFβ blocking IC50 [17]: 0.03 nM

B2: 1D11 (antibody, V domains shown)
VH: QVQLQQSGPELVRPGASVKLSCKASGYIFITYWMNWVKQRPGQGLEWIGQIFPASGSTNYNEMFEGKATLTVDTSSSTAYMQLSSLTSEDSAVYYCARGDGNYALDAMDYWGQGTSVTVSS
VL: DIVLTQSPASLAVSLGQRATISCRASESVDSYGNSFMHWYQQKSGQPPKLLIYLASNLESGVPARFSGSGSRTDFTLTIDPVEADDAATYYCQQNNEDPLTFGAGTKLEIK
notes: also called pan-TGFβ antibody 1D11
- Kd [18]: 0.038 nM
- Kd [19]: 0.009 nM
- Kd [20]: 0.007 nM
- Blocking IC50 [21]: 0.5 nM
- Blocking IC50 [22]: 3.6 nM
- Blocking IC50 [23]: 0.04 nM

B3: h2A10.v3 (antibody, human IgG1, kappa, N297G, V domains shown)
VH: EVQLLESGGGLVQPGGSLRLSCAASGFDFNSYGMSWVRQAPGKGLELVSDIVSKTYSYTTYYSDSVKDRFTISRDDSKNTLYLQMNSLRAEDTAVYYCTVAPGGSFDYWGQGTLVTVSS
VL: DIQLTQSPSSLSASVGDRVTITCRASQSVSISRFNLMHWYQQKPGKAPKLLIYRASNLASGVPSRFSGSGSGTDFTLTISSLQPEDFATYYCQHSRESPWTFGGGTKVEIKR
notes: human IgG1
- Kd [24]: 0.482 nM
- Kd [25]: 0.0026 nM
- HEKBlue TGFβ blocking IC50 [26]: > 200 nM
- HEKBlue TGFβ blocking IC50 [27]: > 200 nM
- HEKBlue TGFβ blocking IC50 [28]: 0.05 nM

B4: h2A10.v4 (antibody, human IgG1, kappa, N297G, V domains shown)
VH: B3 VH with S57N, T59A
VL: B3 VL
notes: human IgG1
- Kd [24]: 0.3 nM
- Kd [25]: 0.0019 nM
- HEKBlue TGFβ blocking IC50 [26]: > 200 nM
- HEKBlue TGFβ blocking IC50 [27]: > 200 nM
- HEKBlue TGFβ blocking IC50 [28]: 0.01 nM

B5: 21D1 (antibody, V domains shown)
VH: QVQLVQSGAEVKKPGASVKVSCKASGYTFTDYNIHWVRQAPGQGLEWMGYIYPYDGETGYNQKFKSRVTMTTDTSTSTAYMELRSLRSDDTAVYYCARGYRWFAYWGQGTLVTVSS
VL: DIQMTQSPSSLSASVGDRVTITCRASSSVPYMHWFQQKPGKAPKSLIYATSNPAYGVPSRFSGSGSGTDFTLTISSLQPEDFATYYCQQWDLNPPAFGQGTKLEIKR
- Kd [18]: 0.008 nM
- Blocking IC50 [21]: 0.013 nM
- Blocking IC50 [22]: > 200 nM
- Blocking IC50 [23]: > 200 nM
